Reference: the supplement of paper PMC10724198
± gives the standard deviation of the averaged measurements.

What follows are sequences tested on Saccharomyces cerevisiae (assay: protein stability index of tFT-peptide fusion (C-terminal peptide) (PSI (0-1 scale)); higher = more stable (slower turnover)). Settings: genetic background: wild type; temperature: 30 C.
Experimental: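 Multiplexed protein stability (MPS) profiling in S. cerevisiae. Random 12-aa peptides (tFT-X12 library) are fused to the C-terminus of a sfGFP-mCherry tandem fluorescent timer, after mCherry and a GGGS linker. Cells are FACS-sorted into 8 mCherry/sfGFP bins and deep-sequenced. The protein stability index (PSI) is the read-weighted bin average, scaled from 0 (unstable) to 1 (stable). Only peptides with >10 reads are reported; cells were grown at 30 °C in SC-His with glucose.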
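Note: PSI is a weighted mean of sequencing reads over stability bins, variants kept only with over 10 reads, mCherry proximal and sfGFP distal, peptide attached via GGGS linker.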

Sequence	protein stability index
GGGRPGLRALSY	0.747 ± 0.034
SMGGDTFILFAV	0.67 ± 0.023
FESYLRLGLGGR	0.667 ± 0.09
SGGGRAECGEVR	0.702 ± 0.021
RASPPPPPPPPP	0.658 ± 0.045
EFPRDLVFDWYG	0.857
GGGGGCGRAGGG	0.714 ± 0.053
FLLPAGLWSSCC	0.66 ± 0.043
NPLDRQNCTCGE	0.656 ± 0.13
AQLPRSFAPPLR	0.868 ± 0.19
GVSLLCLFLGSP	0.6212 ± 0.0041
GLWCVGGGAVGV	0.6818 ± 0.004
ALLGGQLVWNSK	0.667 ± 0.14
SAGARIRPADAL	0.6801 ± 0.0022
TTPPFVSALPLS	0.71142 ± 0.00043
GGMAWGPVCGAG	0.6906 ± 0.0018
PSYRVVVFSLPD	0.758 ± 0.063
PPSPSLLPPLPP	0.684 ± 0.041
PLLPPALPASPF	0.6972 ± 0.0019
CESASGAAWLGG	0.723 ± 0.029
RSGSVGGMECHV	0.7 ± 0.18
KTTTQRQEETAE	0.605 ± 0.033
GWGGSTLRGVRR	0.719 ± 0.03
GSCGCLSVVSGR	0.713 ± 0.044
GCMRCTYKGKVK	0.713 ± 0.059

Sequence	protein stability index
LIRVSPDVNITA	0.622 ± 0.066
PPPSPPHFTSPP	0.683 ± 0.006
AHGASGNRSHNQ	0.644 ± 0.037
FGSLCPRAHSLV	0.71 ± 0.011
ISWCPRHPFSSD	0.752 ± 0.014
GGDIRGGVRHIG	0.725 ± 0.026
GGGGSFLVGLGL	0.647 ± 0.056
SGRTLLPPSLGD	0.606 ± 0.025
FSGLFAFGRVVV	0.687 ± 0.056
VFCSCTARPPLR	0.717 ± 0.023
GLCAVWSGAGRC	0.7 ± 0.037
WGGAGGGSGYGR	0.68 ± 0.064
CSGLFLAPSYTQ	0.713 ± 0.0096
GWSLDYGSTGDR	0.812 ± 0.018
QVGPSPCHPFTL	0.684 ± 0.0091
KKKIKIQPRTEN	0.7302 ± 0.0065
ITYRTSGMGIRA	0.6182 ± 0.0028
QQKKPIRKELRN	0.702 ± 0.053
VTLFGVFQGFVG	0.709 ± 0.02
GGGTGALGTVRW	0.765 ± 0.055
PPPLRTHTGPPP	0.678 ± 0.0069
LTPTLLTNPQAD	0.678 ± 0.022
PDSASSLTPPPP	0.66 ± 0.085
FFSLVHVLFYGF	0.54037 ± 0.00016
PPRSSLNPDLTQ	0.695 ± 0.1

Sequence	protein stability index
GVVNSGVFGINS	0.693 ± 0.054
FPFLPPRSVSPP	0.696 ± 0.12
PLPLPTPPAFLS	0.707 ± 0.08
GGGVRGGVLVLG	0.51 ± 0.03
VIMGLKYYRKCE	0.658 ± 0.014
CPPSPFPPPLPR	0.767 ± 0.094
SFSFPFGCSSRF	0.7195 ± 0.0046
HTKNCTRAVSDR	0.673 ± 0.085
PSDTSHPAWRAN	0.708 ± 0.025
SPARLHLPPFSP	0.717 ± 0.016
PPPSSSGHPLHY	0.714 ± 0.05
LSSARPLAGVHT	0.675 ± 0.03
GFSRELTLARLI	0.613 ± 0.017
AVPSGLPLMFPR	0.662 ± 0.045
KKKNNKRKAKNK	0.6918 ± 0.0012
EGGVRSRVRSRL	0.863 ± 0.063
GTKGEGGGKGGV	0.693 ± 0.038
PPPPLPRAPFSP	0.661 ± 0.0092
GIPYALVTPPFP	0.7724 ± 0.0077
KKEDNKEKYRKK	0.667 ± 0.013
RDGSNSNGKKKK	0.6 ± 0.051
SLLSSSALTASP	0.65 ± 0.043
KSKTYIKKTRKQ	0.744 ± 0.031
LCGFLPSFHLLY	0.679 ± 0.0088
TSKRRRWGTTRK	0.672 ± 0.074

Sequence	protein stability index
PHPQPRPTAPSP	0.7177 ± 0.002
FSASLPLSPSPA	0.6784 ± 0.002
TYPRPGSSIWLR	0.572 ± 0.022
GCGSWAWWCGRG	0.894 ± 0.08
PNRKCSGTFAAS	0.65573 ± 0.00064
MVDGFLRFDTKM	0.704 ± 0.13
LMYGSVGVRGGE	0.76 ± 0.064
APPPPPRISAWL	0.745 ± 0.012
SRTLYSHLLFFP	0.66 ± 0.0097
FSVSSSLSSFRA	0.717 ± 0.03
GTPNLTEEPPHQ	0.761 ± 0.034
ACLCLPGVRVGG	0.625 ± 0.038
DQNRSTTVPRGY	0.686 ± 0.075
NSRDCILQARET	0.713 ± 0.012
MEAAGVGRVVWR	0.632 ± 0.056
WFRPPSVPEEEY	0.728 ± 0.048
GLSRYLTCNNLV	0.674 ± 0.0075
SKTQRKQIIKKQ	0.638 ± 0.056
PVSCLGNQACYV	0.628 ± 0.073
GRCVCVLFWHVS	0.571 ± 0.0078
PLFPGLARLSSS	0.703 ± 0.031
PAHSYPILASGH	0.675 ± 0.034
NRCIRIQETVRI	0.619 ± 0.053
